From PMC12618078

Legend:
RIF1 = RIF1 (UniProt Q5UIP0); test: reciprocal co-IP, Western blot; conditions: reference: WT 53BP1 (before and 1 h after IR); sites T334
PTIP = PTIP (UniProt Q6ZW49); test: reciprocal co-IP, Western blot; conditions: reference: WT 53BP1 (before and 1 h after IR); sites T334

53BP1 (from UniProt Q12888) T334A 53BP1 (before and 1 h after IR)
binding against the reference (RIF1): stronger | binding against the reference (PTIP): stronger
